Results as given in patent US20240400715A1 (VIBRANT PHARMA, published 2024).

Assays:
[1] = molecular target: T1, human CD3ε/δ (ACRO systems, CDD-H52W1) (human, UniProt P07766 23-126; P04234 22-105); assay: serum-stability ELISA, Day 1 vs Day 0
T1 construct: bought recombinant heterodimer; also called human CD3 epsilon/delta; Human CD3ε/CD3δ
Experimental: (§1) The samples to be tested were centrifuged at 4° C. at 12000 rpm for 30 minutes to remove the precipitate. 200 μl of each sample to be tested (0.5 mg/ml) was collected in a 1.5 ml Eppendorf tube. An equal volume of human serum (GEMINI, H2OYOOK) was added, mixed thoroughly, and the mixture was incubated in a 37° C. constant temperature CO₂ incubator. For a total of 10 days, 40 μl samples was aspirated every day and stored at −20° C.
(§2) Enzyme-linked immunosorbent assay (ELISA) was used to test the bispecific antibodies' binding to human CEA and human CD3 epsilon/delta antigen. The steps are as follows: the antigen human CD3ε/δ (ACRO systems, CDD-H52W1) and the recombinant tumor antigen human CEA (CEACAM-5/CD66e, ACRO systems, CE5-H5226) were diluted to 1 μg/ml with PBS, and then added to the 96-well plate at 100 μl per well. The wells were coated overnight at 4° C. After washing 3 times with 0.05% PBST, 200 μl 5% skimmed milk powder was added to each well and incubated at 37° C. for 2 h. After washing 3 times with 0.05% PBST, 100 μl primary antibody sample (10 μg/ml) was added to each well, and incubated at 37° C. for 2 h. After washing 3 times with 0.05% PBST, 100 μl (1:6000) diluted secondary antibody goat anti-human Fc-HRP (sigma, A2170) was added to each well, incubated at room temperature for 1 h. After washing 8 times with 0.05% PBST, 50 μl TMB color developing solution was added to each well, and incubated at room temperature for 10-15 min. 50 μl 1 mM HCl was added to each well to stop the color development. 450 nm Absorbance (OD) was read.
(§3) The binding of antibodies to antigen was calculated according to the following formula: Binding (%)=[(ODdayn−ODb)/(ODday0−ODb)]×100%. ODdayn: experimental well (the protein was stored in the serum for n days); ODday0: control well (the protein was not stored in the serum); ODb: blank well (no primary antibody added).

[2] = molecular target: T1, human CD3ε/δ (ACRO systems, CDD-H52W1); assay: serum-stability ELISA, Day 2 vs Day 0
Experimental: as §1, §2, §3

[3] = molecular target: T1, human CD3ε/δ (ACRO systems, CDD-H52W1); assay: serum-stability ELISA, Day 5 vs Day 0
Experimental: as §1, §2, §3

[4] = molecular target: T1, human CD3ε/δ (ACRO systems, CDD-H52W1); assay: serum-stability ELISA, Day 6 vs Day 0
Experimental: as §1, §2, §3

[5] = molecular target: T1, human CD3ε/δ (ACRO systems, CDD-H52W1); assay: serum-stability ELISA, Day 7 vs Day 0
Experimental: as §1, §2, §3

[6] = molecular target: T1, human CD3ε/δ (ACRO systems, CDD-H52W1); assay: serum-stability ELISA, Day 10 vs Day 0
Experimental: as §1, §2, §3

[7] = molecular target: T1, human CD3ε/δ (ACRO systems, CDD-H52W1); assay: serum-stability ELISA, Day 0 (reference)
[8] = molecular target: T1, human CD3ε/δ (ACRO systems, CDD-H52W1); assay: serum-stability ELISA, Day 9 vs Day 0
Experimental: as §1, §2, §3

Binder	Binding % [1]	Binding % [2]	Binding % [3]	Binding % [4]	Binding % [5]	Binding % [6]	Binding % [7]	Binding % [8]
201 (CEA-Fab-Knob-+Hole) (bispecific antibody, human IgG4 S228P, kappa, F234A L235A, VHH fused after CL of the light chain) heavy: EVKLLESGGGLVQPKGSLKLSCAASGFTFNTYAMNWVRQAPGKGLEWVARIRSKYNNYATYYADSVKDRFTISRDDSQSILYLQMNNLKTEDTAMYYCVRHGNFGNSYVSWFAYWGQGTLVTVSSASTKGPSVFPLAPCSRSTSESTAALGCLVKDYFPEPVTVSWNSGALTSGVHTFPAVLQSSGLYSLSSVVTVPSSSLGTKTYTCNVDHKPSNTKVDKRVESKYGPPCPPCPAPEAAGGPSVFLFPPKPKDTLMISRTPEVTCVVVDVSQEDPEVQFNWYVDGVEVHNAKTKPREEQFNSTYRVVSVLTVLHQDWLNGKEYKCKVSNKGLPSSIEKTISKAKGQPREPQVYTLPPCQEEMTKNQVSLWCLVKGFYPSDIAVEWESNGQPENNYKTTPPVLDSDGSFFLYSRLTVDKSRWQEGNVFSCSVMHEALHNHYTQKSLSLSL ESKYGPPCPPCPAPEAAGGPSVFLFPPKPKDTLMISRTPEVTCVVVDVSQEDPEVQFNWYVDGVEVHNAKTKPREEQFNSTYRVVSVLTVLHQDWLNGKEYKCKVSNKGLPSSIEKTISKAKGQPREPQVCTLPPSQEEMTKNQVSLSCAVKGFYPSDIAVEWESNGQPENNYKTTPPVLDSDGSFFLVSRLTVDKSRWQEGNVFSCSVMHEALHNRFTQKSLSLSL light: QAVVTQESALTTSPGETVTLTCRSSTGAVTTSNYANWVQEKPDHLFTGLIGGTNKRAPGVPARFSGSLIGDKAALTITGAQTEDEAIYFCALWYSNLWVFGGGTKVEIKRTVAAPSVFIFPPSDEQLKSGTASVVCLLNNFYPREAKVQWKVDNALQSGNSQESVTEQDSKDSTYSLSSTLTLSKADYEKHKVYACEVTHQGLSSPVTKSFNRGECGGGGSGGGGSEVQLVESGGGFVQAGESLTLSCTSSTLTFTPYRMAWYRQAPGKQRDLVADISSGDGRTTNYADFAKGRFTISRDNIKNTVFLRMTNLKPEDTAVYYCNTFVSFVGIARSWGQGTQVTVSS	104%	76.3%	105%	102%	104%	98.8%	100%	101%
203 (CEA-Fab-Knob-+Hole) (bispecific antibody, human IgG4 S228P, kappa, F234A L235A, VHH fused before VL of the light chain) heavy: EVKLLESGGGLVQPKGSLKLSCAASGFTFNTYAMNWVRQAPGKGLEWVARIRSKYNNYATYYADSVKDRFTISRDDSQSILYLQMNNLKTEDTAMYYCVRHGNFGNSYVSWFAYWGQGTLVTVSSASTKGPSVFPLAPCSRSTSESTAALGCLVKDYFPEPVTVSWNSGALTSGVHTFPAVLQSSGLYSLSSVVTVPSSSLGTKTYTCNVDHKPSNTKVDKRVESKYGPPCPPCPAPEAAGGPSVFLFPPKPKDTLMISRTPEVTCVVVDVSQEDPEVQFNWYVDGVEVHNAKTKPREEQFNSTYRVVSVLTVLHQDWLNGKEYKCKVSNKGLPSSIEKTISKAKGQPREPQVYTLPPCQEEMTKNQVSLWCLVKGFYPSDIAVEWESNGQPENNYKTTPPVLDSDGSFFLYSRLTVDKSRWQEGNVFSCSVMHEALHNHYTQKSLSLSL ESKYGPPCPPCPAPEAAGGPSVFLFPPKPKDTLMISRTPEVTCVVVDVSQEDPEVQFNWYVDGVEVHNAKTKPREEQFNSTYRVVSVLTVLHQDWLNGKEYKCKVSNKGLPSSIEKTISKAKGQPREPQVCTLPPSQEEMTKNQVSLSCAVKGFYPSDIAVEWESNGQPENNYKTTPPVLDSDGSFFLVSRLTVDKSRWQEGNVFSCSVMHEALHNRFTQKSLSLSL light: EVQLVESGGGFVQAGESLTLSCTSSTLTFTPYRMAWYRQAPGKQRDLVADISSGDGRTTNYADFAKGRFTISRDNIKNTVFLRMTNLKPEDTAVYYCNTFVSFVGIARSWGQGTQVTVSSGGGGSGGGGSQAVVTQESALTTSPGETVTLTCRSSTGAVTTSNYANWVQEKPDHLFTGLIGGTNKRAPGVPARFSGSLIGDKAALTITGAQTEDEAIYFCALWYSNLWVFGGGTKVEIKRTVAAPSVFIFPPSDEQLKSGTASVVCLLNNFYPREAKVQWKVDNALQSGNSQESVTEQDSKDSTYSLSSTLTLSKADYEKHKVYACEVTHQGLSSPVTKSFNRGEC	103%	85.3%	102%	101%	106%	101%	100%	103%
202 (Knob+CEA-Fab-Hole) (bispecific antibody, human IgG4 S228P, kappa, F234A L235A, VHH fused after CL of the light chain) ESKYGPPCPPCPAPEAAGGPSVFLFPPKPKDTLMISRTPEVTCVVVDVSQEDPEVQFNWYVDGVEVHNAKTKPREEQFNSTYRVVSVLTVLHQDWLNGKEYKCKVSNKGLPSSIEKTISKAKGQPREPQVYTLPPCQEEMTKNQVSLWCLVKGFYPSDIAVEWESNGQPENNYKTTPPVLDSDGSFFLYSRLTVDKSRWQEGNVFSCSVMHEALHNHYTQKSLSLSL heavy: EVKLLESGGGLVQPKGSLKLSCAASGFTFNTYAMNWVRQAPGKGLEWVARIRSKYNNYATYYADSVKDRFTISRDDSQSILYLQMNNLKTEDTAMYYCVRHGNFGNSYVSWFAYWGQGTLVTVSSASTKGPSVFPLAPCSRSTSESTAALGCLVKDYFPEPVTVSWNSGALTSGVHTFPAVLQSSGLYSLSSVVTVPSSSLGTKTYTCNVDHKPSNTKVDKRVESKYGPPCPPCPAPEAAGGPSVFLFPPKPKDTLMISRTPEVTCVVVDVSQEDPEVQFNWYVDGVEVHNAKTKPREEQFNSTYRVVSVLTVLHQDWLNGKEYKCKVSNKGLPSSIEKTISKAKGQPREPQVCTLPPSQEEMTKNQVSLSCAVKGFYPSDIAVEWESNGQPENNYKTTPPVLDSDGSFFLVSRLTVDKSRWQEGNVFSCSVMHEALHNRFTQKSLSLSL light: QAVVTQESALTTSPGETVTLTCRSSTGAVTTSNYANWVQEKPDHLFTGLIGGTNKRAPGVPARFSGSLIGDKAALTITGAQTEDEAIYFCALWYSNLWVFGGGTKVEIKRTVAAPSVFIFPPSDEQLKSGTASVVCLLNNFYPREAKVQWKVDNALQSGNSQESVTEQDSKDSTYSLSSTLTLSKADYEKHKVYACEVTHQGLSSPVTKSFNRGECGGGGSGGGGSEVQLVESGGGFVQAGESLTLSCTSSTLTFTPYRMAWYRQAPGKQRDLVADISSGDGRTTNYADFAKGRFTISRDNIKNTVFLRMTNLKPEDTAVYYCNTFVSFVGIARSWGQGTQVTVSS	108%	86.8%	110%	108%	108%	99.1%	100%	104%
204 (Knob+CEA-Fab-Hole) (bispecific antibody, human IgG4 S228P, kappa, F234A L235A, VHH fused before VL of the light chain) ESKYGPPCPPCPAPEAAGGPSVFLFPPKPKDTLMISRTPEVTCVVVDVSQEDPEVQFNWYVDGVEVHNAKTKPREEQFNSTYRVVSVLTVLHQDWLNGKEYKCKVSNKGLPSSIEKTISKAKGQPREPQVYTLPPCQEEMTKNQVSLWCLVKGFYPSDIAVEWESNGQPENNYKTTPPVLDSDGSFFLYSRLTVDKSRWQEGNVFSCSVMHEALHNHYTQKSLSLSL heavy: EVKLLESGGGLVQPKGSLKLSCAASGFTFNTYAMNWVRQAPGKGLEWVARIRSKYNNYATYYADSVKDRFTISRDDSQSILYLQMNNLKTEDTAMYYCVRHGNFGNSYVSWFAYWGQGTLVTVSSASTKGPSVFPLAPCSRSTSESTAALGCLVKDYFPEPVTVSWNSGALTSGVHTFPAVLQSSGLYSLSSVVTVPSSSLGTKTYTCNVDHKPSNTKVDKRVESKYGPPCPPCPAPEAAGGPSVFLFPPKPKDTLMISRTPEVTCVVVDVSQEDPEVQFNWYVDGVEVHNAKTKPREEQFNSTYRVVSVLTVLHQDWLNGKEYKCKVSNKGLPSSIEKTISKAKGQPREPQVCTLPPSQEEMTKNQVSLSCAVKGFYPSDIAVEWESNGQPENNYKTTPPVLDSDGSFFLVSRLTVDKSRWQEGNVFSCSVMHEALHNRFTQKSLSLSL light: EVQLVESGGGFVQAGESLTLSCTSSTLTFTPYRMAWYRQAPGKQRDLVADISSGDGRTTNYADFAKGRFTISRDNIKNTVFLRMTNLKPEDTAVYYCNTFVSFVGIARSWGQGTQVTVSSGGGGSGGGGSQAVVTQESALTTSPGETVTLTCRSSTGAVTTSNYANWVQEKPDHLFTGLIGGTNKRAPGVPARFSGSLIGDKAALTITGAQTEDEAIYFCALWYSNLWVFGGGTKVEIKRTVAAPSVFIFPPSDEQLKSGTASVVCLLNNFYPREAKVQWKVDNALQSGNSQESVTEQDSKDSTYSLSSTLTLSKADYEKHKVYACEVTHQGLSSPVTKSFNRGEC	105%	102%	99.8%	103%	103%	99.4%	100%	105%
